In a protein production outcome set (Wang et al. 2014):

Experiment: label from the status in PepcDB records

Sequence	protein production
MKSTAEYLEDPEQAADRALSLLQDLGGLSAAAAWGRSGVMWRRLAGFGDLAGLPDGAALAAGERPPAGGAMAMRAGDGALGWLAWQGKPPGQMETVAELLAGHLQCEALRAEQAATRVANETMLEISLLAGECPTLDRLLPRLHRLMQRLMDADNFYIALCGDDRSTLSFPFYADRREASPPDPERAFPIAGPDVSLTAWLIRGGAPMVLTGERIEALCRQEALARPANLPAFWMGAPLRNAADELIGAAVLQRYDDQPPLTSAEQLLFMFAARHVGFALDRVLYHRRLERQVALRTSELEGANARLRAEVASRKRAEKFQDVLFRIAELSNTSLSLEAFLSGLHRLLLEMVAARNCVVALYDMGSDLISFPYCADEYAPALKPRKPGKGLIEQVLHSGRPLLLDPYGSLQGMAAAEGATPPKSWLGVPLYCDHELLGVLAVQSYDGDVVYGYRDQEVLEFVANHIGTALARVRALESLQHAYADLEQRVRERTSELDAVNAQLEFDSLHDPLTKLPNRNYFSKALRRAWDAYLDGGDRFAVVFIDLDRFKLVNDTLGHLAGDHLLFEAGARIRSCLRHYDFLARLGGDEFAVLMFGMDAVDECEVIARRIVSEFERPVVLAGREVFSTASVGVVLADSEHYHKADDLLRDADHAMYCTKQQGRQGYTLFSHQLRIDQADQLALETELRRALEEEGQLVPYYQPFIAAATGALAGFETLVRWQHPQRGLVSPGVFLPVAEESGLITRLDRYMINAACAQLQAWRAEGRVGEGIALHINLSSANFRDPDLVGWIGERIAHYRLPPAMLHLEITESALIDQPEAAATAMQALHGLGVRLALDDFGTGYSALSYLHRYRFDVLKIDQSFVFDLDRKQESVAIVRAILALARALDLEVVAEGVETASQSAMLKEMGCGMLQGFHFAAPAPAWALDWDKLARFAEGPGRVA	failed
MKSTLIVIGNIILVILILFIYTMLWYYIGAKGKGIIFGVNLRKKEGLKAVAYWGIFWFLAFSFILSVASRSTISINNKITGILTYLGAISLALFCYLIIIFPITDLIRFILNKLGFSGSLREYMSIIYGRGISIFIAVIIIILFGFWHAIHQTTTNYNISINKKAGKLKQLNVVMVSDVHMGIMIRERGIDKLVTSINKLKPDVVFFCGDMVDESTPTSLEKYYSSAFKEIISKYGVYAITGNHEYATQNSEVAMNYMKKADIKVLEDKAVKVDNSFYVIGRNDAAGGKVKPLNEIMKNADKRLPIIALNHRPVALEEAEKNGVDLQLSGHTHEGQIFPFNFTTKLVFEDDYGYLKKKDFNLIVTSGYGTWGPPIRIGTKGEIVNIKIDFMN	failed
MKTAKRRAFAFATFAIAGLAACENTSSPSLPKDQVMAPGVDLRAAAKQDSSEAVEAGHRMIAAGEYELALRAFNRAALSRGALDAEILSGLGTANLGLGRLGQAEELLRRAVRDDAAQPVDYNNLGVLLMEQGNTAEALQYFRRAFALSNGENIAIRDNLRLALAKTENSATLEAEKSSEYKLVRRGNSDFVIRPTP	failed
MKTDFSLTQLADPDIAEADKILRACVHCGFCTATCPTYVLLGDELDSPRGRIYLIKEMLESDKPPTADVVKHIDRCLSCLACMTTCPSGVNYMHLVDQARVRIEKQYQRPFWDRVVREALSWMMPHPGMFRLGMWAARIVRPVAALLPGSHNLTHPTLLSRIKAMLALAPKHLPEPGPDSGTTFPAVGPKRGRVALLHGCAQQVLAPRINRAAINLLTRHGIEVVLAADEACCGALIHHLGRDTRTLEYARTNIKAWLAEIERGGLDAILVTTSGCGTVIKDYGYMLREDPEYAAAAAKVSALAKDISEYVSGLELSLPRPHDDVVVAYHSACSLQHGQKITQIPKELLSKTGFVVKDIPESHLCCGSAGTYNILQPDIATRLRDRKVANIASVKPDMIAAGNIGCMVQIASGTEVPVVHTIELLDWATGGPRPAPH	failed
MKTGKELKPGTVIRIDNDPWLVQKAEFTKSGRNSAIMKTKLKNLLTGYKTETVYGADDKLDDVILDRKEATLSFISGDTYTFMDTTDYTMYELNAEDIEAVLPFIEEGMTDVCEAVFFEDRLVSVDLPTTIVRQVDYTEGSARGDTSGKVMKPAKLKNGTELSVADFIEIGDMIEIDTREGGSYKGRAKV	failed
MKTGNLNPAPQQVTAPQNKARMDWPDIAKGISILGVVLLHVSLAIPGGQDTMMSHLNALLDPLRMPLFFMVSGFFAVKVLNQSFGELFRGRLWFYLVPYLLWTPVNLYLHRLEGTVFTGRAPGTWEWYSGSMLSATNMYWFLYFLVIFNLFLWATRKLPAWAIVALVASLWLLMPAYSEIEILRKSIIYLPTFLIGAYFRPLISRFAEAATRPKAIVFAAVLYVSGLALGVISNGLRDSENHGASVLWLMNLRDTFAHALGGNLTGFDMDHLPGMIIRIVSLPAGIVLCVWLGRIKPVGEFLKLIGRHTLPIYIGHATGLSLIFGFGLRWNFMEIDNFSDSLWHHTNTWMVIAFACAMLGGYLTYLISRVPVLGWTLVPPKLPEPDKTPAKAQADSHVKAQSAKPMNASTSSKTYGI	failed
MKTIEIFDPAMCCPTGLCGTNINPELMRIAVVIETLKRQGVVVTRHNLRDEPQVYVSNKTVNQYLQKNGAEALPITLVDGEIAVSKDYPTTKQMSEWTGINLD	not failed
MKTIHIYTNGRFEEKQSGIVREFPLVLHVNGREIATLISSPHDLRFLVAGFLRNQGFVERAEDFHMLAVCDDFGIANARIRGELPERLKPVLTSGCGTGVTFTLETPKIPPPLALPAITTDAVFRLMEELARRADNYRSHGGIHSAAVGDGEGNLLLFAEDIGRHNTLDRIAGEALFKGIDLAGTILVTSGRVSTEMAAKCARLGIALIASRTSATDMAVKMCDEAGIPLIGYVRGGKFTVYAHHERLAMAPPVGAIHELPLPASAQGRRIPGITGVILAGGQSRRMGSNKALLPYKGGRFIEAIHRQLAEIFDEVLLVTNNPEQYDFLPCRKVADIHPGMGALAGIHAGLHHAANPAAFMVACDMPYLNSDLIRHLATLADPGGVLIPESPAGLEPLHAVYGKGCLAAIETTLLSGERRIVSFFGRTNVNRVNAEQVALFDPDYATFSNINTPVDYYRLRDGERDELDAALGADRIAGLEHHHHHH	failed
MKTIIRQPQLYRFLKYCNESNLDKTVLDCGAGGDLPPLSIFVEDGYKTYGIEISDLQLKKAENFSRENNFKLNISKGDIRKLPFKDESMSFVYSYGTIFHMRKNDVKEAIDEIKRVLKPGGLACINFLTTKDERYNKGEKIGEGEFLQLERGEKVIHSYVSLEEADKYFKDMKVLFKEDRVVERINDGLKIKQGYVDYIAEKFSKSIL	not failed
MKTKGWGALAVLPLALALAGNVAAEEVKGKVKTVSVKAGQISLTVESKGVMLFRVTDGTTFANAASIREIHADDLLQVDYRVDGFDNVAKAVAKVVAKLPEGVTAMDTRELEALVAKGTEEGGYLLIDSRPAGKYNEAHIPTAVSIPFAELEKNPALLTASKDRLLVFYCGGVTUVLSPKSAGLAKKSGYEKVRVYLDGEPEWKKAELPLESSLAFVEKGNIVLIDLRSPEKVAAGHIPGAVGIPAADLAAAQAKFPAYRGAHLVFYSDSAEDLSQALELARDWNYKNATIFPGGIGAWQKAGKHLKTGAAAATVTYVKKLAPGEVGTEDFQAALKDGRTVVIDARAPGEFEKGHFKGAVNIPAEEAAKRLAEIPADRPVLVHCSTGTRAEMVYDLVKDKGYNLKYLKAGVEFAADGSYTISE	failed
MKTLCTHSLPKEKMPYLLRSGEGERYLFGRQVATVMANGRSTGDLFEIVLLSGGKGDAFPLHVHKDTHEGILVLDGKLELTLDGERYLLISGDYANIPAGTPHSYRMQSHRTRLVSYTMKGNVAHLYSVIGNPYDHAEHPPYASEEVSNERFAEAAAVADIVFLDEAKPACSAKLAELTELPDGAVPYVLESGEGDRLLTGDQLHRIVAAQKNTDGQFIVVSSEGPKGDRIVDHYHEYHTETFYCLEGQMTMWTDGQEIQLNPGDFLHVPANTVHSYRLDSHYTKMVGVLVPGLFEPFFRTLGDPYEGHIFPCEPQALRFDRILQNIEALDLKVMKP	not failed
MKTLFSIYLFLSLNPLFLEANEITWSKFLENFKNKNDDDKPKPLTIDKNNEKQQILDKNQQILKRALEKSLKFFFIFGYNYSQATFSTSNQTLTFVANSIGFNTATGLEHFLRNHPKVGFRIFSVYNYFHSVSLSQPQTLMVQNYGGALDFSWIFVDKNIYRFRSYLGIALEQGVLLVDTIKPGAITTIIPRTKKTFFQAPLRFGFIVDFIGYLSLQLGIEMPLVRNVFYTYNNHQERFKPRFNANLSLIVSF	failed
MKTLTTPAPTKSASFREGVFDSLPIVIGYMPVAFAFGMNAVKLGFTPLEGIFLSCIIYAGASQFVITALLSAGMSIWVAALTVMAMDIRHVLYGPALRHRIVQQLPTRKTALWAFGLTDEVFAAAATRLAKDNRRWSENWMIGVSLLAWLSWVLGTVIGAVFGNGPLDNYPAVEAALSFMLPALFLSFLLASFKRKQSLVVACALGGALLGLLLSSIPAAILLGILSGCLASLVNSATPQVNA	failed
MKTLVHLSDLHFGKTESQLVDAIAAEVRAVDSDLLVVSGDLTQRARKDEFLQARAFLDSLPGPRIVVPGNHDVPLWNVFARAMTPLSRYRRYIEADTDPFYADSEVAVVGINTARSLTIKDGRINVRQLKAATEKFAHMSDDITRIVVTHHPFEGRDLESDDGIVGRADLAMHAFSRSGVDIILSGHQHLHRAGSSARRYLIDGYAALLIQAGTAVSSRLRRAANSFNIIRIEHPRISVECRAWQPSQSGFETSASYSFRQGPGGWKPT	failed
MKTPTFGKREETLTYQTRYAAYIIVSKPENNTMVLVQAPNGAYFLPGGEIEGTETKEEAIHREVLEELGISVEIGCYLGEADEYFYSNHRQTAYYNPGYFYVANTWRQLSEPLERTNTLHWVAPEEAVRLLKRGSHRWAVEKWLAAAS	not failed
MKTRCGCKKIASYTVVKLILNRLDVAMNSTIRRWFASAGAMRRVFSTFAPYLGAGIKVTHIADDFSSATVEMRQHWYNTNYVGTHFGGSLYSMVDPMYMLLLMRSLGNDYIVWDKSASIDFIRPGKGVVKAHFELTDARLDEIREATADGDKYLPEWYIDIVDEAGTVVSRVHKVLYVRRKPAE	failed
MKTRMKITIAFVAVMVLSFTGYNVYKTQKAIQLSDVAMANVEALADGEGTNAGYCYLEDTWSTKRGYKYFCDSKTDKNTIYPCPSSMESGWYDDNKQDRCTK	failed
MKTTALRLYGKRDLRLETFDLPEMQEDEILATVVTDSLCLSSWKEANLGENHKKVPDDVATNPIIIGHEFCGDILAVGKKWQHKFQPGQRYVIQANLQLPDRPDCPGYSFPWVGGEATHVVIPNEVMEQDCLLAYDGETYFEGSLVEPLSCVIGAFNANYHLQEGSYNHTMGIRPQGRMLILGGTGPMGLLAIDYALHGPVNPSQLVITDTDNDKLSYARKHYPSEPQTLIHYLNAADAAFDTLMALSGGHGFDDIFVFVPNEGLVTLASSLLATDGCLNFFAGPQDKHFSAPINFYDVHYAFTHYVGTSGGNTDDMRAAVKLIEEKKVQAAKVVTHILGLNAAGETTLELPAVGGGKKLVYTGKYLPLTSLTQIQDQALAAILARHQGIWSGEAEQYLLTHAEAISHD	failed
MKTTALRLYGKRDLRLETFDLPEMQEDEILATVVTDSLCLSSWKEANLGENHKKVPDDVTTNPIIIGHEFCGDILAVGKKWQHKFQPGQRYVIQANLQLPDRPDCPGYSFPWVDGEATHVVIPNEVMEQYCLLAYDGETYFEGSLVEPLSCVIGAFNANYHLQEGSYNHTMGIRPQGHTLILGGTGPMGLLAIDYALHGPVNPSLLVITDTDNDKLSYARKHYPSEPQTLIHYLNATDAAFDTLMALSGGHGFDDIFVFVPNEGLVTLASSLLATDGCLNFFAGPQDKHFSAPINFYDVHYAFTHYVGTSGGNTDDMRAAVKLIEEKKVQAAKVVTHILGLNAAGETTLELPAVGGGKKLVYTGKYLPLTSLTQIQDQALAAILARHQGIWSGEVEQYLLAHAEAISHDLEHHHHHH	failed
